Data reported in paper PMC5588548, “Suramin Inhibits Osteoarthritic Cartilage Degradation by Increasing Extracellular Levels of Chondroprotective Tissue Inhibitor of Metalloproteinases 3” (Molecular Pharmacology, 2017).

Tested on: HTB94 chondrosarcoma cells
Format: cell-based
Procedure: Cells (HTB94 chondrosarcoma cells, primary porcine chondrocytes, or human osteoarthritic chondrocytes) were plated overnight (6 × 10^5 cells per well of a 12-well plate) in DMEM containing 10% FCS and washed three times in serum-free DMEM.
To evaluate endocytosis of exogenously added TIMP-3, cells were incubated with recombinant TIMP-3 (1 nM in 1.5 ml DMEM with 0.1% FCS) for 0–24 hours. Conditioned media were concentrated by precipitation with trichloroacetic acid [5% (v/v), 4°C, 18 hours]. After centrifugation (13,000 rpm, 4°C, 10 minutes), protein-containing pellets were resuspended in SDS sample buffer (30 µl), electrophoresed (7 µl) on a 10% polyacrylamide gel, and immunoblotted onto polyvinylidene fluoride. After blocking in 5% (m/v) BSA in Tris-buffered saline, TIMP-3 levels were analyzed using an M2 anti-FLAG antibody (Sigma-Aldrich), an alkaline phosphatase–conjugated anti-mouse secondary antibody (Promega, Southampton, UK), and a Western Blue stabilized substrate for alkaline phosphatase (Promega). Immunoblots were analyzed by densitometry using Phoretix 1D densitometry software (TotalLab, Newcastle-upon-Tyne, UK), and TIMP-3 remaining in the medium (mean ± S.D., n = 3) was calculated relative to pixel volume at a t of 0 hours (defined as 100%).

B1: TIMP-3: C-terminally FLAG-tagged human TIMP-3 expressed in human embryonic kidney 293 cells; endogenous metalloproteinase inhibitor (protein, UniProt P35625 24-211, looked up)
Metalloproteinase inhibitor 3: CTCSPSHPQDAFCNSDIVIRAKVVGKKLVKEGPFGTLVYTIKQMKMYRGFTKMPHVQYIHTEASESLCGLKLEVNKYQYLLTGRVYDGKMYTGLCNFVERWDQLTLSQRKGLNYRYHLGCNCKIKSCYYLPCFVTSKNECLWTDMLSNFGYPGYQSKHYACIRQKGGYCSWYRGWAPPDKSIINATDP
modifications: C-terminal FLAG tag
half-life of TIMP-3 uptake from the medium: 4.0 ± 1.3 h
